Results on six sequences are retold here after the DeepSol protein solubility set.

This data set is described as follows: soluble on expression in E. coli; label from the status in PepcDB or PDB records.
Take “MGSDKIHHHHHHMFYQLYELNHAALQPARLYADAVRMFYSNPLNPIAHTHWGRSVAAGAELFERTTRRYGKPAFGLDKTVVDWKSVEVTEKTVWSKPFCNLVRFERAMPAGRKPDPKLLIVAPMSGHYATLLRGTVEAMLPYADVHITDWVDARMVPLVDGSFDLDDYIDYIIEMFHALGPDTHVMAVCQPSVPVLAAVALMEAKGDPFVPSTMTLMGGPIDTRRNPTAVNLLAEEKGIDWFRDNVVMRAPWPVPGFGREVYPGFLQLSGFMSMNLDRHIIAHKDFFMHLVKNDGDNAEKHRDFYDEYMAVMDLTAEFYLQTVDTVFVRHALPKGEMKHRGAAIDTSAIRNVALFTVEGENDDISGLGQTKAAQDLCINIPADKKAHYMQPAVGHYGVFNGSRFRSEIVPRIVDFITSYGRQNRVAVKPKLVRTAKR”: the “soluble on expression in E. coli” value is on record as “not soluble”.

As to “MSLQEIIGASLVFLCNEKCEVLEDYGVVFDEKIVEIGDYQSLTLKYPHLKAQFFENSVLLPAFINAHTHFEFSNNKASFDYGSFSGWLGSVLNNGGAILENCQGAIQNAISTQLKSGVGSVGAISNHLIEVNLLKESPLNAVVFLEFLGSSYSLEKLKAFEAKFKELKDLEDKKLKAALAVHAPYSVQKDMALSVIQLAKDSQSLLSTHFLESLEELEWVENSKGWFENFYQHFLKESHFKSLYKGANDYIDMFKDTHTLFVHNQFASLEALKRIKSQVKNAFLITCPFSNRLLSGQALDLERTKEAGLSVSVATDGLSSNISLSLLDELRAFLLTHNMPLLELAKIALLGATRHGAKALALNNGEIEANKRADLSVFGFNEKFTKEQAILQFLLHAKEVECLFLGGKRVIEGHHHHHH”, the “soluble on expression in E. coli” value is “soluble”.

For “MSLRPTMADVAREAGVSLSTVDRVLNLRADVRTDTAQRIAAAAALLGFHAKGVIEQRILNDKPTVRLGFLLQKSGVAFYKGLAQALSNAAATFTRARVQVVIGYLDDLDPATVAQRLLALGDQVDGVGMVAVDHPRVRDAVASLQVAGVPVVALISELAGLGSASYVGVDNRLMGRTAGWFVTRLAGSPGSAAVMVSSQRFQCQELCEMSFRSYLSSHSTDWELLASRLTLEDDDFAYGNALDLLSGEPELSALYVAGGGVAGVLRALRELQQQQIRLPVVVCHDLTPLTREALKADLVQVVLSHPIVQVAEQTVRALVAASSDLTRVARVTVPIQVDVSESIAEGHHHHHH”, the “soluble on expression in E. coli” value is reported as “soluble”.

“MGSDKIHHHHHHMNVPKAGKVICAGLGPGDPELMSVKSWRALQGATHVAYFRKAGRAGQARAIVEGLLPAGVTEYPMEYPVTTEIHFSDPEYNRQLAAFYDQWADTLAEIAATQTVVVLCEGDPFLYGSFMHLHTRLEGRAEVEIIPGITGMSGCWTATGQPITWGDDVLTVAMATLSEDELTQRIRQTDALVVMKIGRNLPKLRRALEAAGRLQDAWLVERGTMPAQTVQKLTDVDGEVPYFSIVILHGEGRRP”: the “soluble on expression in E. coli” value is “not soluble”.

“RHAIAETLSQEIKQELKDLYMDKADFKVVFTKGKFNREGNETVAFHISTNPGEDFKPLVKVASGGELSRLMLAIKSAFSRREDKTSIVFDEVDTGVSGRVAQAIAQKIYKIGNHGQVLAISHIPQVIAISDYQYFIEKQSSKATTVSTVRLLNQEERIEEIAKML”: the “soluble on expression in E. coli” value is recorded as “not soluble”.

Regarding “MKTLHLTFIAKSSKRSHFWLELVWLNNQKKILFCGAGHCKMSPHIIATVTIDDEHHHHHHRSNENYSPSSQDMDSPKPKGRILYCRKCEGHGEKVILKNHSPQCPYILCNCKSCEKLNYKRLKSFNKRNKEKIELAAALNAKRHAPESGSSVDDEEGFSRRSSFCSKTSTPDMDSETRTSSTTPITRSNSTMPTANGLEGRSGSLGHMTVMSYDIWKAKCASERKRLEEERLTKPELFTRSPSPGPMRKRAHTFVAPPTIHTPDIPVVAAKKMSLDEKVKGKFITLPTIPAMRIFVNEEDEDVKPVTQMQLAQPIALTPSPQMSLASTLAQIPMSTPVCMPSMITPTSFLDIPSTSSPMLPFQISTTTSPMLQRQTPILTPQMSPFKPVGVATPQPPALSNLSAGQELSSFILHSVVLQAQQAQQKTAQQLIPTSMPSELESTLSLLRLQQSSLGDLIKLSGIQLPTLPTTQPMLTPQMPTLPMMQKALPTVLPGSFQPFLQPTLFTNPV”, the “soluble on expression in E. coli” value is listed as “not soluble”.
